{"source": "paper PMC4139268", "about": "“Thermal, Chemical and pH Induced Unfolding of Turmeric Root Lectin: Modes of Denaturation” (PLoS ONE, 2014)", "proteins": {"B1": {"name": "Curcuma longa rhizome lectin (natural protein)", "chain": "KNILLSGETLETGKFLTEGEFTFLMQSDCNLVLYDLNRPIWSSGTIHKGSGCILKMQNDGNLVIYNVTNNAIWASNTGGQQGNYILILQRDRNVVIYSQPIFNTDTAVSKLNSSNLGETGNGGNIAQPENKIAIGASNGHNANILPSGETLPTGKLTLPSEVATETGK", "modifications": "glycosylated (glycoprotein with about 5.2% covalently bound sugar); sites not stated"}}, "biological_target": "the molecule itself", "assay": "SEC; Biogel P-100 column; CLA incubated 5 h at room temperature at pH 7, 5 or 4 (10 mM Na-phosphate or Na-acetate, 150 mM NaCl); mass from a standard curve run at pH 7", "data": [{"protein": "B1", "values": [{"measurement": "stoichiometry N", "value": 2}]}]}
